The values below come from patent publication CN115785267A (SANYOU BIO INC, dated 2023).

Sequences and labels used below:
T1: 人IL-23-His (human, UniProt Q9NPF7 20-189; P29460 23-328)
T1 construct: range 20-189;range 23-328; also called 重组蛋白人IL-23
T1 sequence (looked up) 1: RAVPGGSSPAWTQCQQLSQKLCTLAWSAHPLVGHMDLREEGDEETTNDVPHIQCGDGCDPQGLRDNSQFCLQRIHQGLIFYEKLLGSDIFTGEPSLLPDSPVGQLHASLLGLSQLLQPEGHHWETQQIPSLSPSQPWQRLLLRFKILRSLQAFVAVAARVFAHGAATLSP
T1 sequence (looked up) 2: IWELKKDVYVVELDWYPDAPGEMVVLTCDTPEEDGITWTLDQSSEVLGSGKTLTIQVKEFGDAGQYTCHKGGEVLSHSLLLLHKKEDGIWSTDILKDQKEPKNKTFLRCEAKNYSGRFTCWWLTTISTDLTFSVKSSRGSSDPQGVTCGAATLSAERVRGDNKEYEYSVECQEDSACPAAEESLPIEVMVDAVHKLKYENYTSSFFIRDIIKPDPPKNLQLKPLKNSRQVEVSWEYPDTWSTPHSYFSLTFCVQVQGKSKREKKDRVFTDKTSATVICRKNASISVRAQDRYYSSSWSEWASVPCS

B1: 改造后抗体S5-5HWTL (antibody, V domains shown)
VH: QVQLVQSGAEVKKPGSSVKVSCKASGGTFSSYAISWVRQAPGQGLEWMGGIIPIFGTANYAQKFQGRVTITADESTSTAYMELSSLRSEDTAVYYCARDRFGLYYYYGMDVWGQGTMVTVSS
VL: QSVLTQPPSVSGAPGQRVTISCTGGSSSIGAGYDVQWYRQLPGIAPKLLIYRSTNRPSGVPARFSGSKSGASASLAITGLQAEDEADYYCVSYDSSLGGYVFGTGTKVTVL
B2: 改造后抗体S5-4H6L (antibody, V domains shown)
VH: B1 VH with G102S
VL: B1 VL with S26Q, S95A
B3: 改造后抗体S5-15HWTL (antibody, V domains shown)
VH: B1 VH with Q1K, I51F, F101T, G102S
VL: B1 VL

Positions count from the first letter of the chain named.

For the first assay, the target named is T1, 人IL-23-His. Briefly: Biacore (SPR), human IL-23-His. For orientation: SPR reads the build-up and loss of mass on a sensor chip optically.
For orientation: Kd means the free concentration of one partner at which half of the binding sites on the other are occupied at equilibrium, for simple one-to-one binding. What is called koff is the first-order rate constant of dissociation. Read a high koff as fast dissociation. In general, kon refers to the second-order rate constant of association. Read a high kon as fast association. For B1, the Kd was determined as 0.0625 nM, the off-rate (koff) stood at 6.97e-06 s⁻¹ and the on-rate (kon) was found to be 111000 M⁻¹ s⁻¹.
B2: binding was put at a Kd of 0.0589 nM, the koff is 6.03e-06 s⁻¹ and the on-rate constant (kon) was 102000 M⁻¹ s⁻¹.
In turn, B3 gave a dissociation constant Kd of 0.108 nM, a koff of 1.18e-05 s⁻¹ and a kon of 109000 M⁻¹ s⁻¹.

A further assay addresses T1, 人IL-23-His. In words: cell-based or functional assay.
As for B1, the “抑制IL-23激活小鼠脾细胞分泌IL-17: 剂量浓度 at which the inhibition is better than that of Guselkumab” value turned out to be 0.063 µg/mL.
For the molecule B2, the “抑制IL-23激活小鼠脾细胞分泌IL-17: 剂量浓度 at which the inhibition is better than that of Guselkumab” value was determined as 0.056 µg/mL.
Still for that read-out and setting: as for B3, the figure is 0.167 µg/mL.
